From article doi:10.1101/2023.04.22.537027 (bioRxiv, 2023)

Molecular target: the molecule itself
Assay: crystal structure

B1: Cdc10_(Δ1-10) (domain or fragment)
chain: SYVGFDTITNQIEHRLLKKGFQFNIMVVGQSGLGKSTLINTLFASHLIDSATGDDISALPVTKTTEMKISTHTLVEDRVRLNINVIDTPGFGDFIDNSKAWEPIVKYIKEQHSQYLRKELTAQRERFITDTRVHAILYFLQPNGKELSRLDVEALKRLTEIANVIPVIGKSDTLTLDERTEFRELIQNEFEKYNFKIYPYDSEELTDEELELNRSVRSIIPFAVVGSENEIEINGETFRGRKTRWSAINVEDINQCDFVYLREFLIRTHLQDLIETTSYIHYEGFRARQLIALKENANSRSSAHMSSNAIQR
Does B1 bind?
Result: binds
